B1: reference wild-type (WT) peptide (unmodified NW peptide) prohibitin 1 (PHB1), endogenous in human blood monocytes [human (endogenous in blood monocytes)] (parent)
chain 1: NWYLPWLGTNDW
chain 2: MAAKVFESIGKFGLALAVAGGVVNSALYNVDAGHRAVIFDRFRGVQDIVVGEGTHFLIPWVQKPIIFDCRSRPRNVPVITGSKDLQNVNITLRILFRPVASQLPRIFTSIGEDYDERVLPSITTEILKSVVARFDAGELITQRELVSRQVSDDLTERAATFGLILDDVSLTHLTFGKEFTEAVEAKQVAQQEAERARFVVEKAEQQKKAAIISAEGDSKAAELIANSLATAGDGLIELRKLEAAEDIAYQLSRSRNITYLPAGQSVLLQLPQ

Variants of: B1
Assay: flow cytometry competition assay on monocytes
Details: with prohibitin 1 (PHB1)
[1] = competitor 2.5 µg/ml, NW peptide 0.05 µg/mL, parent: 50, read off a plot
[2] = competitor 5 µg/ml, NW peptide 0.05 µg/mL, parent: 82, read off a plot
[3] = competitor 10 µg/ml, NW peptide 0.05 µg/mL, parent: 92, read off a plot
[4] = competitor 20 µg/ml, NW peptide 0.05 µg/mL, parent: 95, read off a plot
[5] = competitor 2.5 µg/ml, experimental conditions as in Figure 7, parent: 45, read off a plot
[6] = competitor 20 µg/ml, experimental conditions as in Figure 7, parent: 93, read off a plot
[7] = competitor 5 µg/ml, experimental conditions as in Figure 7, parent: 60, read off a plot
[8] = competitor 10 µg/ml, experimental conditions as in Figure 7, parent: 85, read off a plot

Row | screen value [1] [%] | screen value [2] [%] | screen value [3] [%] | screen value [4] [%] | screen value [5] [%] | screen value [6] [%] | screen value [7] [%] | screen value [8] [%] | Variant
1 | 0 | 12 | 30 | 65 | – | – | – | – | chain 1 P5A
2 | 0 | 0 | 0 | 2.5 | – | – | – | – | chain 1 W2A
3 | 0 | 0 | 0 | 2.5 | – | – | – | – | chain 1 L7A
4 | – | – | – | – | 5 | 3 | – | – | chain 1 W2Y W6Y W12Y
5 | – | – | – | – | 50 | 95 | 55 | 86 | chain 1 L4V L7V
6 | 10 | 20 | 60 | 80 | – | – | – | – | chain 1 T9A
7 | 0 | 9 | 10 | 8 | – | – | – | – | chain 1 W12A
8 | 0 | 0 | 8 | 12 | – | – | – | – | chain 1 W6A
9 | 30 | 45 | 67 | 90 | – | – | – | – | chain 1 N1A
10 | 0 | 10 | 45 | 65 | – | – | – | – | chain 1 G8A
11 | 56 | 70 | 86 | 95 | – | – | – | – | chain 1 N10A
12 | 0 | 0 | 2.5 | 0 | – | – | – | – | chain 1 L4A
13 | – | – | – | – | – | 4 | 7 | 3 | chain 1 W2F W6F W12F
14 | 23 | 54 | 56 | 68 | – | – | – | – | chain 1 Y3A
15 | 47 | 80 | 85 | 98 | – | – | – | – | chain 1 D11A
